“Also recorded” adds a separate entry of the source.
Experiments:
[1] = tested on: glycine-proline (GP) RAN protein; test: GP RAN protein levels in peripheral blood leukocytes of a C9ORF72 expansion-positive human subject; format: in vivo; conditions: single human subject; 500 or 1000 mg/day Metformin Hydrochloride Extended Release Tablets; 10 to 30 days; vs pretreatment
Source text: […]. […] […].

RAN translation = test: Immunoblot of RAN protein levels in HEK293T cells transfected with repeat expansion constructs; format: cell-based; conditions: for RAN polyGP levels: HEK293T transiently transfected with G4C2 expansion construct, dose series; for polyLPAC RAN protein levels: CCTG (CCUG) expansion construct; for polyGP RAN protein levels: GGGGCC (G4C2) expansion construct
Source text: Diagrams of CAG, CCTG and GGGCC repeat expansion constructs used to test effects of protein kinase R (PKR) on repeat associated non-ATG (RAN) translation are shown in FIG. 1A. Briefly, constructs have a 6× stop-codon cassette (e.g., two stops in each reading frame, upstream of the repeat expansions and C-terminal epitope tags). A diagram of PKR vectors expressing wildtype (PKR-WT), the dominant negative K296R mutant form of PKR (PKR-K296R), or the C-terminal only domain (PKR-CT) are shown in FIG. 1B.
(§1) HEK293T cells were transfected with RAN protein-expressing and PKR-expressing constructs.
(§2) HEK293T cells were cultured in DMEM medium supplemented with 10% fetal bovine serum and incubated at 37° C. in a humid atmosphere containing 5% CO2. DNA transfections were performed using Lipofectamine 2000 Reagent (Invitrogen) according to the manufacturer's instructions.
(§3) Transfected cells in each well of a six-well tissue-culture plate were rinsed with PBS and lysed in 300 μL RIPA buffer with protease inhibitor cocktail for 45 min on ice. DNA was sheared by passage through a 21-gauge needle. The cell lysates were centrifuged at 16,000×g for 15 min at 4° C., and the supernatant was collected. The protein concentration of the cell lysate was determined using the protein assay dye reagent (Bio-Rad). Twenty micrograms of protein were separated in a 4-12% NuPAGE Bis-Tris gel (Invitrogen) and transferred to a nitrocellulose membrane (Amersham). The membrane was blocked in 5% dry milk in PBS containing 0.05% Tween-20 (PBS-T) and probed with the anti-Flag (1:2000), anti-Myc (1:1000), anti-HA (1:1000), or rabbit polyclonal antibodies (1:1000) in blocking solution. After the membrane was incubated with anti-rabbit or anti-mouse HRP-conjugated secondary antibody (Amersham), bands were visualized by the ECL plus Western Blotting Detection System (Amersham).
Next, the effects of PKR overexpression and inhibition on RAN protein accumulation across several types of repeat expansions were tested. […] For CAGEXP expressing cells, PKR-WT overexpression led to increased p-PKR and p-eIF2α, and increased RAN polyAla protein levels. In contrast, expression of the dominant-negative PKR-K296R mutation decreased polyAla RAN protein levels. […] The polyGln reading frame, which contains an AUG initiation codon, is not affected by PKR (FIG. 7A).
. […] Protein blots were run on protein lysates from HEK293T cells transfected with various repeat expansion constructs shown in FIG. 13A. In FIG. 13B, the lanes labeled KMQ, show: RAN poly-Ser-Flag, RAN poly-Ala-HA, ATG initiated polyGln-Myc. In FIG. 13B the lanes labeled KMQ has a methionine encoding ATG immediately 5′ to the CAG repeat expansion and located within the polyGln reading frame. The lanes labeled KKQ indicate the KKQ vector contains a CAG expansion without an AUG initiation codon, and indicates: RAN polySer-Flag, RAN polyAla-HA, RAN polyGln-Myc. These constructs contain epitope tags that are incorporated into the C-terminal regions of the ATG-initiated poly-Gln and non-ATG initiated RAN proteins (poly-Gln, poly-Leu-Pro-Ala-Cys and poly-Gly-Pro) which are expressed across these repeat expansions. The lane labeled CCTG expresses the following RAN proteins: RAN polyLPAC-Flag, RAN polyLPAC-HA, RAN polyLPAC-Myc. The lane labeled G4C2 is designed to detect the following RAN proteins: RAN polyGP-Flag, RAN polyGR-HA, RAN polyGA-Myc. […]

PKR = target: T1, PKR (Homo sapiens, UniProt P19525); test: Protein blot of phospho-PKR (T446 and T451) in HEK293T cells transfected with repeat expansion constructs; format: cell-based; conditions: for G4C2 repeat-expansion induced p-PKR levels: HEK293T, G4C2 expansion construct, dose series
T1 construct: endogenous in cells; host or cells: HEK293T
T1 sequence (P19525 whole entry): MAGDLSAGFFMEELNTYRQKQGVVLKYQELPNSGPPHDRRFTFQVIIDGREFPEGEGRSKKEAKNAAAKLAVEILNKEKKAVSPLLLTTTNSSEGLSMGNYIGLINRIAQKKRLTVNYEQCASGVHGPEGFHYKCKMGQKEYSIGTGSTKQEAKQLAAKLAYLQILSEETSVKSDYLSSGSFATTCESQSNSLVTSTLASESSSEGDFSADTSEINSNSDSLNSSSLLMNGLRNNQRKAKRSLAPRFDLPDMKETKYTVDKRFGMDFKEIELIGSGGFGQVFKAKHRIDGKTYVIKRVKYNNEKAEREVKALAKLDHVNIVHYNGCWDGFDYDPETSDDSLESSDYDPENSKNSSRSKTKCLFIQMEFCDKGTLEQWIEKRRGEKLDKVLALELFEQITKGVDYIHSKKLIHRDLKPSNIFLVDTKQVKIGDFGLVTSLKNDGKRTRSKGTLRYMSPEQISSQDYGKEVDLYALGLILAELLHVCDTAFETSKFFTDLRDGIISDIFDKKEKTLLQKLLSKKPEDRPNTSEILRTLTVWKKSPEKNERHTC
Method: as §2, §3
Therefore, the ability of other RAN positive repeat expansions to activate PKR and the role of PKR on RAN translation were tested.
[…]. Transient transfections of expansion constructs treated with or without metformin were performed. […].

eIF2α = test: Immunoblot of phosphorylated eIF2α in transfected HEK293T cells; format: cell-based; conditions: HEK293T co-transfected with repeat expansion constructs
Method: as §1, §2
as §3, with “System (Amersham). […]” for “System (Amersham).”

C9-500 BAC mice = test: ICV injection of AAV expressing PKR-K296R in C9-500 BAC transgenic mice; format: in vivo; conditions: for GA RAN protein aggregates in the retrosplenial cortex (IHC): analysis at 3 months; for open field center time: vs C9 EGFP control animals
Source text: Schematic diagrams of AAV2/9 constructs used for rAAV injections into a BAC transgenic mouse model of C9orf72 ALS/FTD containing 500 G4C2 repeats (C9-500 BAC) are shown in FIG. 3A. Briefly, animals were sacrificed for analysis at 3 months of age after […] intracerebral ventricular (ICV) injections with AAV2/9 virus expressing either EGFP or the dominant negative form of PKR(K296R).
Representative immunohistochemical (IHC) staining of GA RAN protein aggregates in sections of the retrosplenial cortex from C9-500 BAC mice (FIG. 3B, left). Quantification of GA RAN protein aggregates was also performed (FIG. 3B, right). Analysis was done in a blinded fashion.
AAV vectors expressing the PKR under the control of the cytomegalovirus enhance/chicken beta actin (CBA) promoter, a woodchuck hepatitis virus post-transcriptional-regulatory element (WPRE), and the bovine growth hormone polyA were generated by Polyethylenimine Linear (PEI, Polysciences) transfection into HEK293T cells. Cells were co-transfected with AAV helper plasmids pDP8.ape to produce recombinant adeno-associated viral (rAAV) vector rAAV2/8.
Neonatal pups were injected within 0-12 hours after birth. The naive pups were covered in aluminum foil and completely surrounded in ice for 3-4 minutes, resulting in the body temperature being lowered to <10° C. The pups were considered completely cryoanesthetized when all movement stops and the skin color changes from pink to purple. 2 μl of virus ([…]) was slowly injected into the ventricle using 10 μl syringes (30 degree beveled). After injection pups were allowed to completely recover on a warming blanket and then returned to the home cage.
rAAV-mediated delivery of dominant negative PKR-K296R, or EGFP as a control, was performed using intracerebroventricular (ICV) injections at P0 in C9orf72 ALS/FTD BAC transgenic mice (C9-BAC) and non-transgenic (NT) littermate controls. A schematic depiction of each construct is described in FIG. 10A. Four groups of animals (EGFP/C9, EGFP/NT, PKR-K296R/C9 and PKR-K296R/NT) were aged to 3 months. […] Similarly, soluble GP levels, detected by meso-scale detection (MSD) assays, were reduced in brain lysates from C9 PKR-K296R treated animals compared to C9 EGFP controls.

[2] = HEK293T, CAG expansion construct

For `CN(C)C(=N)NC(=N)N` [metformin, reference compound], the “glycine-proline (GP) RAN protein levels in leukocyte lysates from peripheral blood” value [1] was “Dose dependent reduction”, the RAN protein levels (RAN translation; HEK293T cells expressing CAG, CCUG or G4C2 expansion RNAs, protein blot) was “decreases” and the “RAN polyGP levels” value (RAN translation) was “dose-dependent inhibition”. For the same molecule, the “polyAla RAN protein levels” value (RAN translation; [2]) was “reduced RAN protein levels”, the “polyLPAC RAN protein levels” value (RAN translation; HEK293T) was “reduced RAN protein levels” and the “polyGP RAN protein levels” value (RAN translation; HEK293T) was “reduced RAN protein levels”. For the same molecule, the “PKR phosphorylation at T446 and T451” value (PKR; HEK293T transiently transfected with expansion constructs, with or without metformin) was “decreases” and the “G4C2 repeat-expansion induced p-PKR levels” value (PKR) was “dose-dependent inhibition”.

`O=C(COc1ccc(Cl)cc1)NC1CCC(NC(=O)COc2ccc(Cl)cc2)CC1` (stereo not drawn) [ISRIB, reference compound] was tested, and the “polyAla RAN protein levels” value (RAN translation; HEK293T transfected with expanded CAG and PKR-WT constructs) was “reduces” and the “polyAla RAN protein levels” value (RAN translation; HEK293T transfected with expanded CAG and PKR-WT constructs, listed as ISIRB) was “decrease”.

For `[H]/N=C(/N)N/C(=N/[H])NCCc1ccccc1` [phenformin, reference compound], the “RAN polyGP levels” value (RAN translation) was “dose-dependent inhibition” and the “G4C2 repeat-expansion induced p-PKR levels” value (PKR) was “dose-dependent inhibition”.

With `CCCCNC(=N)NC(=N)N` [buformin, reference compound] the “RAN polyGP levels” value (RAN translation) was “dose-dependent inhibition” and the “G4C2 repeat-expansion induced p-PKR levels” value (PKR) was “dose-dependent inhibition”.

B1: TARBP2: PKR inhibitor, transactivation response element RNA-binding protein, overexpressed by co-transfection (protein, UniProt Q15633 1-366, looked up)
RISC-loading complex subunit …: MSEEEQGSGTTTGCGLPSIEQMLAANPGKTPISLLQEYGTRIGKTPVYDLLKAEGQAHQPNFTFRVTVGDTSCTGQGPSKKAAKHKAAEVALKHLKGGSMLEPALEDSSSFSPLDSSLPEDIPVFTAAAAATPVPSVVLTRSPPMELQPPVSPQQSECNPVGALQELVVQKGWRLPEYTVTQESGPAHRKEFTMTCRVERFIEIGSGTSKKLAKRNAAAKMLLRVHTVPLDARDGNEVEPDDDHFSIGVGSRLDGLRNRGPGCTWDSLRNSVGEKILSLRSCSLGSLGALGPACCRVLSELSEEQAFHVSYLDIEELSLSGLCQCLVELSTQPATVCHGSATTREAARGEAARRALQYLKIMAGSK
For B1, the “RAN polyAla levels expressed from CAG and CUG (CTG) expansions” value (RAN translation; HEK293T co-transfection, overexpression) was “decreases”, the “polyLPAC RAN protein levels” value (RAN translation; HEK293T) was “decreases” and the “steady state levels of eIF2α-P (p-eIF2α)” value (eIF2α) was “reduces; also recorded: decrease”.

B2: PKR-K296R: dominant negative K296R mutant form of protein kinase R, expressed from plasmid or AAV vector (protein, UniProt P19525 2-551, looked up, variant K296R)
Interferon-induced, …: AGDLSAGFFMEELNTYRQKQGVVLKYQELPNSGPPHDRRFTFQVIIDGREFPEGEGRSKKEAKNAAAKLAVEILNKEKKAVSPLLLTTTNSSEGLSMGNYIGLINRIAQKKRLTVNYEQCASGVHGPEGFHYKCKMGQKEYSIGTGSTKQEAKQLAAKLAYLQILSEETSVKSDYLSSGSFATTCESQSNSLVTSTLASESSSEGDFSADTSEINSNSDSLNSSSLLMNGLRNNQRKAKRSLAPRFDLPDMKETKYTVDKRFGMDFKEIELIGSGGFGQVFKAKHRIDGKTYVIRRVKYNNEKAEREVKALAKLDHVNIVHYNGCWDGFDYDPETSDDSLESSDYDPENSKNSSRSKTKCLFIQMEFCDKGTLEQWIEKRRGEKLDKVLALELFEQITKGVDYIHSKKLIHRDLKPSNIFLVDTKQVKIGDFGLVTSLKNDGKRTRSKGTLRYMSPEQISSQDYGKEVDLYALGLILAELLHVCDTAFETSKFFTDLRDGIISDIFDKKEKTLLQKLLSKKPEDRPNTSEILRTLTVWKKSPEKNERHTC
In the case of B2, the “polyAla RAN protein levels” value (RAN translation; [2]) is reported as “decreased”, the “polyAla RAN protein levels” value (RAN translation; HEK293T, CAG expansion construct, listed as K296R PKR) is reported as “decreases” and the “ATG-initiated polyGln protein levels” value (RAN translation; HEK293T, CAG expansion with ATG in polyGln frame) is reported as “not affected”. For the same molecule, the “polyQAGR RAN protein levels” value (RAN translation; HEK293T, CAGG expansion construct) was “decreased”, the “polyLPAC RAN protein levels” value (RAN translation; HEK293T) was “decreased” and the “polyLPAC RAN protein levels” value (RAN translation; HEK293T, listed as K296R PKR) was “decreases”. For the same molecule, the “polyGP RAN protein levels” value (RAN translation; HEK293T) was “decreased”, the “polyGP RAN protein levels” value (RAN translation; HEK293T, listed as K296R PKR) was “decreases” and the “steady state levels of eIF2α-P (p-eIF2α)” value (eIF2α) was “decreases”. For the same molecule, the “DigiGait parameters (of 15) significantly different between C9 PKR-K296R and NT treatment groups” value (C9-500 BAC mice; 12 weeks) was 2, the “DigiGait parameters improved, of 15 that differed between untreated C9-500 and NT EGFP controls” value (C9-500 BAC mice; 12 weeks) was “nine of these parameters improved” and the “soluble GP levels in brain lysates (MSD)” value (C9-500 BAC mice; neonatal ICV AAV injection, 3 months, vs C9 EGFP controls) was “reduced”. For the same molecule, the “GA RAN protein aggregates in the retrosplenial cortex (IHC)” value (C9-500 BAC mice; neonatal ICV AAV injection, vs C9 EGFP controls) was “decreased numbers of GA aggregates”, the “GA RAN protein aggregates in the retrosplenial cortex (IHC)” value (C9-500 BAC mice; neonatal ICV AAV injection, vs C9 EGFP controls, listed as PKR(K296R)) was “fewer GA RAN protein aggregates” and the “open field center time” value (C9-500 BAC mice) was “increased center time”. For the same molecule, the “open field center time” value (C9-500 BAC mice; listed as PKR(K296R)) was “reduced center time”.
